From FireProtDB (doi:10.1016/0301-4622(94)00150-i)
Where “and” joins values, the source holds several entries; their conditions need not be identical. Equal entries are not always repeated.

Settings: Aspergillus flavus, Thermal, DSC, reversible: No, whole UniProt chain shown
[1] = pH 6.95, Sodium phosphate 50 mM
[2] = pH 7.45, Sodium phosphate 50 mM

B1: Uricase wild type, Q00511 (protein)
chain: MSAVKAARYGKDNVRVYKVHKDEKTGVQTVYEMTVCVLLEGEIETSYTKADNSVIVATDSIKNTIYITAKQNPVTPPELFGSILGTHFIEKYNHIHAAHVNIVCHRWTRMDIDGKPHPHSFIRDSEEKRNVQVDVVEGKGIDIKSSLSGLTVLKSTNSQFWGFLRDEYTTLKETWDRILSTDVDATWQWKNFSGLQEVRSHVPKFDATWATAREVTLKTFAEDNSASVQATMYKMAEQILARQQLIETVEYSLPNKHYFEIDLSWHKGLQNTGKNAEVFAPQSDPNGLIKCTVGRSSLKSKL
- Tm [1]: 65 °C
- unfolding enthalpy (calorimetric) [1]: 16.3 kcal/mol
- unfolding enthalpy (calorimetric) (pH 7.2, Sodium phosphate 50 mM): 75.8 kcal/mol and 48.1 kcal/mol
- unfolding enthalpy (calorimetric) (pH 7.25, Sodium phosphate 50 mM): 72 kcal/mol and 53.3 kcal/mol
- Tm [2]: 68.4 °C
- unfolding enthalpy (calorimetric) [2]: 57.9 kcal/mol
- Tm (pH 7.8, Sodium phosphate 50 mM): 50.1 °C
- unfolding enthalpy (calorimetric) (pH 7.8, Sodium phosphate 50 mM): 82.8 kcal/mol
- unfolding enthalpy (calorimetric) (pH 8.5, Tris-HCl 50 mM): 78.9 kcal/mol and 29.7 kcal/mol
- Tm (pH 8.8, Tris-HCl 50 mM): 49.9 °C
- unfolding enthalpy (calorimetric) (pH 8.8, Tris-HCl 50 mM): 80.1 kcal/mol
- unfolding enthalpy (calorimetric) (pH 9.05, Tris-HCl 50 mM): 76.8 kcal/mol and 26.8 kcal/mol
- unfolding enthalpy (calorimetric) (pH 9.5, carbonate 50 mM): 82.3 kcal/mol and 59.1 kcal/mol
